According to PMC11091212, “Microfibril-associated glycoprotein 4 forms octamers that mediate interactions with elastogenic proteins and cells” (Nature Communications, 2024):

T1: fibulin-5 (UniProt Q9UBX5 24-448)
T1 construct: fibulin-5, recombinant
T1 sequence (looked up): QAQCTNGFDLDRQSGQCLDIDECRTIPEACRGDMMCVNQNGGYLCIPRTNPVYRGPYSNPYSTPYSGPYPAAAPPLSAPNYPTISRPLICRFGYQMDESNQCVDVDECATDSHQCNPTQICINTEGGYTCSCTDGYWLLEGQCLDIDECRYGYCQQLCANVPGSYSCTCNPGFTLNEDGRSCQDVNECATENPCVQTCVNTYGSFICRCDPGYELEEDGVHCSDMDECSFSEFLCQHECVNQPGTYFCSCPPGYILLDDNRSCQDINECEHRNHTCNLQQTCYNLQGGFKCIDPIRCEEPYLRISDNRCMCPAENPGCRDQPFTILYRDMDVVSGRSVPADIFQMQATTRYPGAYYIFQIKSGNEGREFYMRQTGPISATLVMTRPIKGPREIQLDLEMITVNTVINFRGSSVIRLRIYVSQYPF

T2: recombinant human tropoelastin (human, UniProt P15502 27-786)
T2 construct: human tropoelastin, recombinant; source: bought: Elastagen
T2 sequence (looked up): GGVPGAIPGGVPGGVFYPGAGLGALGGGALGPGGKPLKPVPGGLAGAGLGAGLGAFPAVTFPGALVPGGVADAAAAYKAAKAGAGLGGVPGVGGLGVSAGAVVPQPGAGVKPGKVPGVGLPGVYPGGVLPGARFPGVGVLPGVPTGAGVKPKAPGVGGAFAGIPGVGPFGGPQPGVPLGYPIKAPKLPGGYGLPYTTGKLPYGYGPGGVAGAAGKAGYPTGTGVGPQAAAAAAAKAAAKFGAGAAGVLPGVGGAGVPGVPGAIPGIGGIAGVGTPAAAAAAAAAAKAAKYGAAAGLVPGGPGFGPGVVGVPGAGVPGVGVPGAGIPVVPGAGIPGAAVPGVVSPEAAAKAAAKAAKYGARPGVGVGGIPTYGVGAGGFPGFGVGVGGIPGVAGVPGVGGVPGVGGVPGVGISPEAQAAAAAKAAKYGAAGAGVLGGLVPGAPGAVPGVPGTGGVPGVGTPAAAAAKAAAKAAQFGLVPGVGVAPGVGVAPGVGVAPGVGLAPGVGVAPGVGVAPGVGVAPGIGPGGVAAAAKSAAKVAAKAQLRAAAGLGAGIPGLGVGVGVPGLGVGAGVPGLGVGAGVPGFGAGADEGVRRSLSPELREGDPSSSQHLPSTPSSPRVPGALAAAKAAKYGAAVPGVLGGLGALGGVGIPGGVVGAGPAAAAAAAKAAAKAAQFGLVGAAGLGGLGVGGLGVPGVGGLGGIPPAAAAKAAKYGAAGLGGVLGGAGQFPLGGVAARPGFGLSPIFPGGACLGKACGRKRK

T3: fibulin-4 (UniProt O95967 24-443)
T3 construct: fibulin-4, recombinant
T3 sequence (looked up): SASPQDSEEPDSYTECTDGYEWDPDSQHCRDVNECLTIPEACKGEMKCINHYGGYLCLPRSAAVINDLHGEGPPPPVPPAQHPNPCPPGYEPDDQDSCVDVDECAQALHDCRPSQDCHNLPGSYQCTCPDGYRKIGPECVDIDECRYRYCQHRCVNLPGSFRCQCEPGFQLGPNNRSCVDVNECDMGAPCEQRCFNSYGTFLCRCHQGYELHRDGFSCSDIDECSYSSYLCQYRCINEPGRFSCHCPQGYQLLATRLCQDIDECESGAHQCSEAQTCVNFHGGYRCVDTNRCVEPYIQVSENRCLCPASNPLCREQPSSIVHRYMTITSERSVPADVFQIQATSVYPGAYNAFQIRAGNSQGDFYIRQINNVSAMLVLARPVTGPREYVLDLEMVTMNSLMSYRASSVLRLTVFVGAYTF

B1: Microfibril-associated glycoprotein 4 (natural protein, human, UniProt P55083 22-255, looked up)
chain: VSGIRGDALERFCLQQPLDCDDIYAQGYQSDGVYLIYPSGPSVPVPVFCDMTTEGGKWTVFQKRFNGSVSFFRGWNDYKLGFGRADGEYWLGLQNMHLLTLKQKYELRVDLEDFENNTAYAKYADFSISPNAVSAEEDGYTLFVAGFEDGGAGDSLSYHSGQKFSTFDRDQDLFVQNCAALSSGAFWFRSCHFANLNGFYLGGSHLSYANGINWAQWKGFYYSLKRTEMKIRRA
modifications: intermolecular disulphide bond between C34 of two monomers; N-glycosylated at N87 and N137 (cryo-EM density)
notes: signal peptide in the construct; Q21 is the first residue after signal peptide cleavage; Octamer (8 copies) in TBS with 2 mM Ca2+; tetramer (4 copies) after Ca2+ depletion with EDTA or EGTA; also called MFAP4; source: HEK293 EBNA cells, transfected (pCEP4-MFAP4), conditioned medium, purified by nickel chelating chromatography

What was measured:
[1] = biological target: the molecule itself; test: SDS-PAGE; non-reducing, 10% gel, Coomassie stain; disulphide-linked dimer
[2] = biological target: the molecule itself; test: cryo-EM structure; MFAP4 after Ca2+ depletion with 5 mM EDTA; single particle analysis, C2 symmetry; tetramer
[3] = biological target: the molecule itself; test: dynamic light scattering; TBS/Ca2+ (2 mM); mass from hydrodynamic radius by calibration with standard proteins, globular model; monomers to octamer
fibulin-5 = biological target: T1, fibulin-5; test: SPR; Ca2+ form (octamer): MFAP4 or MFAP4_(C34S) amine-coupled on CM5 (Biacore X), elastogenic proteins as analytes 5-100 µg/mL in TBS/Ca2+ (2 mM CaCl2); 1:1 Langmuir fit, KD is the average over five concentrations; settings: both partners purified
[4] = biological target: T2, recombinant human tropoelastin; test: as above; settings: both partners purified
[5] = biological target: T4, latent transforming growth factor beta binding protein-4, long isoform (UniProt Q8N2S1-1 28-1624); test: as above; settings: both partners purified
T4 construct: LTBP4, long isoform (LTBP4L); also called LTBP4L

fibulin-4 = biological target: T3, fibulin-4; test: as above; settings: both partners purified
[6] = biological target: the molecule itself; test: SPR; self-interaction of octamers; Biacore X, CM5 chip, MFAP4 or MFAP4_(C34S) amine-coupled (300-500 RU), same protein as analyte 5-100 µg/mL in TBS/Ca2+ (50 mM Tris-HCl pH 7.4, 150 mM NaCl, 2 mM CaCl2); 1:1 Langmuir fit, KD is the average over five concentrations
[7] = biological target: the molecule itself; test: atomic force microscopy; MFAP4 or MFAP4_(C34S) Ca2+-depleted (5 mM EDTA); particle heights on mica, tapping mode in air
[8] = biological target: B1; test: SPR; Ca2+ form (octamer): MFAP4 or MFAP4_(C34S) amine-coupled on CM5 (Biacore X), elastogenic proteins as analytes 5-100 µg/mL in TBS/Ca2+ (2 mM CaCl2); 1:1 Langmuir fit, KD is the average over five concentrations; settings: both partners purified

T4 sequence (Q8N2S1 28-1624): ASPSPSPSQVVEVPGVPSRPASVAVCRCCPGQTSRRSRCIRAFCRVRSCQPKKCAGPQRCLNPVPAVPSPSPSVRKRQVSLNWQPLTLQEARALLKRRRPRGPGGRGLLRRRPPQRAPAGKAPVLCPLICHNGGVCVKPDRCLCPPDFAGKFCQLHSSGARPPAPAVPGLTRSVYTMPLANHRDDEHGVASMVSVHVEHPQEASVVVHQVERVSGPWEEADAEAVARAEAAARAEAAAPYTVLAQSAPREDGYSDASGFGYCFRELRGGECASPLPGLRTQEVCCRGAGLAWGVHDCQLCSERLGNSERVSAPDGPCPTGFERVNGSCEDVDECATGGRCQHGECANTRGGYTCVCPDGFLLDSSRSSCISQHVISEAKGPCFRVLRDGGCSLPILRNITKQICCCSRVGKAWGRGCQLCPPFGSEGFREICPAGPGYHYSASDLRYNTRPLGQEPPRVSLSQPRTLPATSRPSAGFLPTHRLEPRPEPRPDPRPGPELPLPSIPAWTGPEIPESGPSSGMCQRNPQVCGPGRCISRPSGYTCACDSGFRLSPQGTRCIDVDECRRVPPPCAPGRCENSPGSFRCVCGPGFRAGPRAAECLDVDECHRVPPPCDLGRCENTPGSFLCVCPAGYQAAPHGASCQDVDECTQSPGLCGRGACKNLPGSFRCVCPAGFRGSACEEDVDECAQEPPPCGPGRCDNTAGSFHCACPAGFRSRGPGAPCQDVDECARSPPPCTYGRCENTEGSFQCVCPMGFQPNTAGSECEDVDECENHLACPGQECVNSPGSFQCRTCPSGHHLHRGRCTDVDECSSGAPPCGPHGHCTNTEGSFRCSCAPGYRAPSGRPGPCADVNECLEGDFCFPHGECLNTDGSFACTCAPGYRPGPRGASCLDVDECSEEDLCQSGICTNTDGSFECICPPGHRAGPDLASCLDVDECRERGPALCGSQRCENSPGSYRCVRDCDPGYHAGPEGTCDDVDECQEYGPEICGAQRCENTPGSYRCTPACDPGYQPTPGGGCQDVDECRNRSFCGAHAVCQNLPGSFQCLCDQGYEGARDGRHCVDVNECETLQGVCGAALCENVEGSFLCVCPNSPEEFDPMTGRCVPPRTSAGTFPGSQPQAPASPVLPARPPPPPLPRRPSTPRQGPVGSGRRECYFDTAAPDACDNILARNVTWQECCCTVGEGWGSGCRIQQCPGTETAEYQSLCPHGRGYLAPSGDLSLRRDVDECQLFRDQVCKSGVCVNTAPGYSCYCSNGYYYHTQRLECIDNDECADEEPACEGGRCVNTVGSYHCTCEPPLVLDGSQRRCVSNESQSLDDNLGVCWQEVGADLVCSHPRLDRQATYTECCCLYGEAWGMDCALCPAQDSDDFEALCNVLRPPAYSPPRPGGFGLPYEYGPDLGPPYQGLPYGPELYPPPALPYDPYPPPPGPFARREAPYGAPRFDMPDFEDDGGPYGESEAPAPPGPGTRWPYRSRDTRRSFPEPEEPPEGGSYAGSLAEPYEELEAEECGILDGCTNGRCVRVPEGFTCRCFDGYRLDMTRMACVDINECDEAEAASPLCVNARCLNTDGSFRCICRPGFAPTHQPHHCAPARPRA

Row | Binder | stoichiometry N [1] | stoichiometry N [2] | stoichiometry N [3] | Kd (fibulin-5) | Kd [4] | Kd [5] | Kd (fibulin-4) | Kd [6] | stoichiometry N [7] | Kd [8]
1 | B1 | 2 | 4 | 8 | 357 nM | 45 nM | 18 nM | 110 nM | 6.2 nM |  | 
2 | MFAP4_(C34S) (natural protein, human, UniProt P55083 22-255, looked up, signal peptide in the construct; human MFAP4, M1KAL...IRRA255 with C34S; Q21 is the first residue after signal peptide cleavage; Octamer in TBS with Ca2+; tetramer after Ca2+ depletion; No intermolecular disulphide bond; also called MFAP_(C34S); source: HEK293 EBNA cells, transfected (pCEP4-MFAP4_(C34S)), conditioned medium, purified by nickel chelating chromatography) VSGIRGDALERFSLQQPLDCDDIYAQGYQSDGVYLIYPSGPSVPVPVFCDMTTEGGKWTVFQKRFNGSVSFFRGWNDYKLGFGRADGEYWLGLQNMHLLTLKQKYELRVDLEDFENNTAYAKYADFSISPNAVSAEEDGYTLFVAGFEDGGAGDSLSYHSGQKFSTFDRDQDLFVQNCAALSSGAFWFRSCHFANLNGFYLGGSHLSYANGINWAQWKGFYYSLKRTEMKIRRA |  |  | 8 |  |  |  |  | 5.8 nM | 4 | 
3 | fibrillin-1 centre region fragment rF1M (domain or fragment) not shown |  |  |  |  |  |  |  |  |  | 1.2 nM
